# From patent US8637465B2, “Fibroblast growth factor receptor-derived peptides binding to NCAM” (Kobenhavns Universitet, priority 2009, dated 2014)
# “Also recorded” adds a separate entry of the source.
# T1: FGFR Ig2-NCAM F3(1-2) binding (Mus musculus, UniProt P16092)
# T1 construct: AGHHHHHH and amino acids 140-251 of FGFR (SwissProt p16092); made in house; host or cells: Pichia pastoris KM71
# T1 sequence (P16092 140-251): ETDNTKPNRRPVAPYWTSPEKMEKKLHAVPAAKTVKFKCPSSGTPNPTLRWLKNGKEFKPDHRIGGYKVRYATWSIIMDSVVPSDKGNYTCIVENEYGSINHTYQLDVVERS
# T2: FGFR1 Ig2 module (Mus musculus, UniProt P16092)
# T2 construct: AGHHHHHH and amino acids 140-251 of FGFR (SwissProt p16092); made in house; host or cells: Pichia pastoris KM71
# T2 sequence (P16092 140-251): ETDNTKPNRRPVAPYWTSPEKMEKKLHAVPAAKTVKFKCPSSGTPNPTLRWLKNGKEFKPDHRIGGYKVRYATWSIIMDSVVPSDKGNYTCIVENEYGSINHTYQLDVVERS
# T3: FGFR Ig2-Ig3 construct (Mus musculus, UniProt P16092)
# T3 construct: the double-module FGFR Ig2-Ig3 construct
# T3 sequence (P16092 141-365 limits assumed): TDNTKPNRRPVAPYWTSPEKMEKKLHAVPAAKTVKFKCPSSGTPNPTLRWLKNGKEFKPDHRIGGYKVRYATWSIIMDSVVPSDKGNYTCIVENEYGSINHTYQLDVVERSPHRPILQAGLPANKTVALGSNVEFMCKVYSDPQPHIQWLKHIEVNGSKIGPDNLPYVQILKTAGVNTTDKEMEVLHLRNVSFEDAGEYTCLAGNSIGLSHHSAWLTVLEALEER
# B1: NCAM F3 modules 1-2: recombinant rat NCAM fibronectin type III modules 1-2 with AGHHHHHH tag (SwissProt p13596) (protein)
# chain: AGHHHHHHQADTPSSPSIDRVEPYSSTAQVQFDEPEATGGVPILKYKAEWKSLGEEAWHSKWYDAKEANMEGIVTIMGLKPETRYAVRLAALNGKGLGEISAATEFKTQPVREPSAPKLEGQMGEDGNSIKVNLIKQDDGGSPIRHYLVKYRALASEWKPEIRLPSGSDHVMLKSLDWNAEYEVYVVAENQQGKSKAAHFVFRTSAQ
# B2: FGFR Ig2 module: recombinant Ig2 module of mouse FGFR1 (IIIc isoform): AGHHHHHH and amino acids 140-251 of FGFR (SwissProt p16092) (protein)
# chain: AGHHHHHHETDNTKPNRRPVAPYWTSPEKMEKKLHAVPAAKTVKFKCPSSGTPNPTLRWLKNGKEFKPDHRIGGYKVRYATWSIIMDSVVPSDKGNYTCIVENEYGSINHTYQLDVVERS
# How the values were obtained:
# [1] = biological target: T1, FGFR Ig2-NCAM F3(1-2) binding; assay: SPR analysis of inhibition of FGFR Ig2-NCAM F3(1-2) binding; parameters: species or system mouse FGFR1, rat NCAM; settings: 20 μM Ig2 module of FGFR, indicated concentrations of SOS; FIG. 4
# Protocol: The binding of 20 μM Ig2 module of FGFR to the immobilized NCAM F3 modules 1-2 was performed using indicated concentrations of SOS. The experiment was repeated 9 times. Immobilization of the NCAM and FGFR modules and binding analysis were performed using a BIAcore2000 instrument (Biosensor AB, Sweden) at 25° C. using 10 mM sodium phosphate containing 150 mM NaCl (pH 7.4) as running buffer. Data were analyzed by nonlinear curve fitting using the manufacturer's software. The FGFR Ig module 2 and NCAM F3 modules 1-2 were immobilized on sensor chip CM5 using an amine coupling kit (Biosensor AB) as follows: the chip was activated by 20 μl activation solution; the protein was immobilized using 12 μl of 20 μg/ml protein in 10 mM sodium acetate buffer (pH 6.0); the chip was blocked by 35 μl blocking solution. The curves corresponding to the difference between binding to ligand (immobilized molecule) and a blank chip were used for analysis. One of the identified clusters (the first one) is located in the close vicinity of the sites in Ig2 for binding of FGF, heparin and Ig2 (FIG. 3) (Plotnikov et al., 1999; Pellegrini et al., 2000). […] To verify this assumption, we tested sucrose octasulphate (SOS), a well-known heparin analogue, for its ability to inhibit binding of soluble Ig2 to the immobilized NCAM F3 modules.
# [2] = biological target: T4, fibronectin modules (F3(1-2)) of NCAM (Rattus norvegicus, UniProt P13596); assay: Binding of FGFR1-Ig2 derived peptides to immobilized fibronectin modules (F3(1-2)) of NCAM; settings: FIG. 5 and FIG. 6
# T4 construct: amino acids 507-611 and 507-705 of NCAM (SwissProt p13596), respectively; made in house; host or cells: Pichia pastoris KM71
# Protocol: Immobilization of the NCAM and FGFR modules and binding analysis were performed using a BIAcore2000 instrument (Biosensor AB, Sweden) at 25° C. using 10 mM sodium phosphate containing 150 mM NaCl (pH 7.4) as running buffer. Data were analyzed by nonlinear curve fitting using the manufacturer's software. The FGFR Ig module 2 and NCAM F3 modules 1-2 were immobilized on sensor chip CM5 using an amine coupling kit (Biosensor AB) as follows: the chip was activated by 20 μl activation solution; the protein was immobilized using 12 μl of 20 μg/ml protein in 10 mM sodium acetate buffer (pH 6.0); the chip was blocked by 35 μl blocking solution. The curves corresponding to the difference between binding to ligand (immobilized molecule) and a blank chip were used for analysis.
# [3] = biological target: T2, FGFR1 Ig2 module; assay: SPR binding of soluble NCAM F3 modules 1-2 to immobilized FGFR Ig2 module; settings: 25° C., pH 7.4, FIG. 1B, estimated
# Text: (§1) To study the binding properties between the FGFR Ig2 module and NCAM, we used recombinant proteins of the NCAM F3 modules 1-2 and the FGFR1 Ig2 module. Both proteins were properly folded as judged by one-dimensional NMR.
# (§2) The Ig2 module of mouse FGFR1 (IIIc isoform) and rat NCAM F3 modules 1-2 were produced. Both proteins were expressed in a KM71 strain of yeast expression system of P. pastoris (Invitrogen, USA). The FGFR Ig module 2 consists of AGHHHHHH and amino acids 140-251 of FGFR (SwissProt p16092) and the combined F3 modules 1 and 2 consist of AGHHHHHH and amino acids 507-611 and 507-705 of NCAM (SwissProt p13596), respectively. For the protein expression the following media were used: BMGH (0.1 M potassium phosphate pH 6.0, 3.4 g/L yeast nitrogen base (without amino acids and ammonium sulphate), 10 g/L ammonium sulphate, 400 μg/L D-biotin, 60 mg/L L-histidine, 2% glycerol) and BMMH (0.1 M potassium phosphate pH 6.0, 3.4 g/L yeast nitrogen base (without amino acids and ammonium sulphate), 10 g/L ammonium sulphate, 400 μg/L D-biotin, 60 mg/L L-histidine, 1% methanol). […]
# (§3) Immobilization of the NCAM and FGFR modules and binding analysis were performed using a BIAcore2000 instrument (Biosensor AB, Sweden) at 25° C. using 10 mM sodium phosphate containing 150 mM NaCl (pH 7.4) as running buffer. Data were analyzed by nonlinear curve fitting using the manufacturer's software. […]
# [4] = biological target: T3, FGFR Ig2-Ig3 construct; settings: SPR; Kiselyov et al., 2003; read-out: dissociation constant (Kd), NCAM F3 modules 1-2 binding to FGFR Ig2-Ig3 construct; cited from earlier work
# [5] = biological target: T5, NCAM F3 modules 1-2 (Rattus norvegicus, UniProt P13596); assay: SPR binding of soluble FGFR Ig2 module to immobilized NCAM F3 modules 1-2; settings: 25° C., pH 7.4, FIG. 1A, estimated
# T5 construct: amino acids 507-611 and 507-705 of NCAM (SwissProt p13596), respectively; made in house; host or cells: Pichia pastoris KM71
# Text: as §1, §2, §3
molecule,measurement,setting,value
"O=S(=O)(O)OC[C@H]1O[C@@](COS(=O)(=O)O)(O[C@H]2O[C@H](COS(=O)(=O)O)[C@@H](OS(=O)(=O)O)[C@H](OS(=O)(=O)O)[C@H]2OS(=O)(=O)O)[C@@H](OS(=O)(=O)O)[C@@H]1OS(=O)(=O)O [SOS, sucrose octasulphate]",inhibition of binding of soluble Ig2 to the immobilized NCAM F3 modules,[1],capable of inhibiting; also recorded: inhibitory effect
"RWLKNGKEFK (Derived from FGFR) [SEQ ID NO:3, FGFR1-Ig2 derived peptide (amino acids 189-198)]",binding to the immobilized fibronectin modules (F3(1-2)) of NCAM,[2],binding
"AKTVKFK (Derived from FGFR) [SEQ ID NO:2, FGFR1-Ig2 derived peptide (amino acids 171-177)]",binding to the immobilized fibronectin modules (F3(1-2)) of NCAM,[2],binding
B1,Kd,[3],12 µM
same,Kd,[4],10 µM
B2,Kd,[5],35 µM
